Laboratory results: article PMC9982576, “Nuclear Fructose‐1,6‐Bisphosphate Inhibits Tumor Growth and Sensitizes Chemotherapy by Targeting HMGB1” (Advanced Science, 2023)
One block for each molecule: values may come before it.

Assays:
HMGB1 [1] = target: T1, HMGB1 (Homo sapiens, UniProt P09429); assay: SPR, inhibition of free HMGB1 binding to chip-anchored HMGB1; conditions: 100 mM Hepes, 50 mM NaCl; 25 °C; HMGB1 self-association
T1 construct: full-length, expressed in and purified from human HEK293 cells; self-associates into oligomers
T1 sequence (P09429 1-215): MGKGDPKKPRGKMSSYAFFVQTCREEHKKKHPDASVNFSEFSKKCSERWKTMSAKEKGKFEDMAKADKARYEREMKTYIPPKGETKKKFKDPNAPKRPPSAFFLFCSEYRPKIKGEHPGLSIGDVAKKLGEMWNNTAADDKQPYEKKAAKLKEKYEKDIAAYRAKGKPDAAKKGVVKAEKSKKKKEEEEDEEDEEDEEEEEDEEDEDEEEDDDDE
From the text: SPR, inhibition of free HMGB1 binding to chip-anchored HMGB1 on HMGB1 | inhibitory efficiency of F1,6P on free HMGB1 binding to chip‐anchored HMGB1

HMGB1 [2] = target: T1, HMGB1; assay: isothermal titration calorimetry; assay type: binding; conditions: 100 mM Hepes, 50 mM NaCl; single-site model; allosteric ligand
HMGB1 A-box (aa1–83) = target: T2, HMGB1 A-box (aa1–83) (Homo sapiens, UniProt P09429); assay: ITC of A-box with C15 peptide, with or without F1,6P; assay type: binding; conditions: 0.2 mM F1,6P; 100 mM Hepes, 50 mM NaCl; disruption of the A-box - C-tail peptide interaction
T2 construct: A-box domain aa1-83, purified from HEK293 cells; assayed with synthetic C15 peptide (HMGB1 C-tail aa200-214)
T2 sequence (P09429 1-83): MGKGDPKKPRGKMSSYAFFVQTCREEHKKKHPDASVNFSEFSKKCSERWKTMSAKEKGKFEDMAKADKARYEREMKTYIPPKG

HMGB1 [3] = target: T1, HMGB1; assay: SPR, inhibition of free HMGB1 binding to chip-anchored DNA; conditions: 100 mM Hepes, 50 mM NaCl; 25 °C; unmodified DNA
[4] = target: GFP(C)-HMGB1-K43/K44A-GFP(N) construct; assay: split-GFP fluorescence complementation in HEK293 cells (Cytation cell imaging reader); conditions: each construct normalised to its own 0 mM value (1.0), read off a plot
[5] = target: T3, HMGB1 A-box (aa1–83), purified (UniProt P09429 1-83); assay: ITC; purified HMGB1 A-box in the cell titrated with free C-tail (15) peptide; 100 mM Hepes, 50 mM NaCl; with or without 0.2 mM F1,6P; single site binding model; conditions: both partners purified
T3 construct: HMGB1 A-box, aa1-83; also called HMG A-box; source: HEK293 cells, expressed and purified
T3 sequence (looked up): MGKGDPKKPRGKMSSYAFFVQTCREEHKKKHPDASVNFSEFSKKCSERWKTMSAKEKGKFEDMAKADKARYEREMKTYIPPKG

[6] = target: T4, HMGB1 A-box K43/44A, purified (UniProt P09429 1-83, K43/44A | K43/44A); assay: as above; conditions: both partners purified
T4 construct: HMGB1 A-box (aa1-83 as told for the wild-type A-box) with K43 and K44 changed to alanine; also called K43/44A A-box; source: HEK293 cells, expressed and purified
T4 sequence (looked up): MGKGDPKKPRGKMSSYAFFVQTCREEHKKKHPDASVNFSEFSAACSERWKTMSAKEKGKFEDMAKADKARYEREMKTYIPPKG

IC50 (HMGB1 [1]): 12.7 µM
Kd (HMGB1 [2]): 28.6 µM
IC50 (HMGB1 [3]): 14.1 µM
Molecule: O=P(O)(O)OC[C@H]1OC(O)(COP(=O)(O)O)[C@@H](O)[C@@H]1O (stereo partly drawn) [F1,6P]
ITC of A-box with C15 peptide, with or without F1,6P (HMGB1 A-box (aa1–83)): C15 peptide displayed good affinity for the A‐box, whereas the interaction was highly disrupted by F1,6P

response (relative fluorescence intensity) ([4]; 1 mM F1,6P, parent: est. 0.83): 0.93
response (relative fluorescence intensity) ([4]; 5 mM F1,6P, parent: est. 0.53): 0.92
response (relative fluorescence intensity) ([4]; 10 mM F1,6P, parent: est. 0.38): 0.9
Molecule: GFP(C)-HMGB1(A-B)-linker-HMGB1(C)-GFP(N) fusion protein K43A; K44A

binding result [5]: binds
binding result [6]: binds
B1: C15 peptide (HMGB1 aa200–214) (peptide, UniProt P09429 200-214, looked up)
peptide: EEDEEDEDEEEDDDD
notes: HMGB1 acidic C-tail, aa200-214; also called C-tail (15) peptide; C-tail (15); source: synthetic peptide
